According to patent publication US8058396B2, “Cystatin C as an antagonist of TGF-β and methods related thereto” (National Jewish Health, priority 2003, dated 2011):
Where a SMILES comes first, the peptide text is derived from it.

How the values were obtained:
[1] = tested on: HT1080 fibrosarcoma cells; assay: HT1080 cell invasion through Matrigel matrices; format: cell-based, human; conditions: treatment of HT1080 cells with inhibitor
Experimental: (§1) The effect CystC and D14CystC on the invasion of HT1080 and 3T3-L1 cells was determined as described previously (42). Briefly, upper chambers were coated with 100 μl of diluted Matrigel (1:50 in serum-free media), which was allowed to evaporate to dryness overnight at room temperature. The following morning the Matrigel mixtures were rehydrated and subsequently cultured with control-, CystC-, or D14CystC-expressing HT1080 or 3T3-L1 cells at a density of 100,000 cells/chamber. Cellular invasion was stimulated by addition of 2% serum to the lower chambers. Forty-eight hr later, the cells were washed twice in ice-cold PBS and immediately fixed for 15 min with 95% ethanol. Cells remaining in the upper chambers were removed with a cotton swab, whereas those remaining in the lower chamber were stained with crystal violet. Quantifying invading cells was determined through two independent measures, which yielded identical results: (i) manual counting under a light microscope, and (ii) crystal violet dye extraction by incubation of the membranes in 10% acetic acid, followed by spectrophotometry at 590 nm.
Cathepsin B is a lysosomal cysteine proteinase that functions in intracellular protein catabolism, as well as in bone resorption, hormone activation, and antigen processing (5). During tumorigenesis, cancer cells express a cathepsin B splice variant whose protein product is secreted into the extracellular milieu (5) and localized to the leading edge of invasive tumors (19), thereby promoting cancer cell invasion and metastasis. However, recent evidence has questioned the role of intracellular versus extracellular cathepsin B in promoting cancer cell invasion (20). To distinguish between these two possibilities, human HT1080 fibrosarcoma cells that stably express the murine ecotropic receptor (21) were infected with control (i.e., GFP), CystC, or Δ14CystC retrovirus. Afterward, cells that expressed GFP were isolated by flow cytometry to establish stable polyclonal populations of control-, CystC-, and Δ14CystC-expressing HT1080 cells (data not shown). The inventor chose to study HT1080 cells because they are highly invasive, and because they express large quantities of secreted cathepsin B and comparably little CystC (22). Thus, if extracellular cathepsin B mediates HT1080 cell invasion, it was hypothesized that overexpression of secreted CystC would attenuate their invasion through synthetic basement membranes.
Briefly, GFP-, CystC-, or Δ14CystC-expressing HT0180 cells were allowed to invade through Matrigel-coated membranes for 48 hr. Data shown in FIG. 1A are the mean (±SE) of three (Δ14CystC) and nine (GFP and CystC) independent experiments presented as the percent invasion relative to GFP-expressing HT1080 cells (***, p<0.05; Student's T-Test).

[2] = tested on: TGF-β receptors (TβR-I, TβR-II, TβR-III); assay: Iodinated TGF-β1 radioligand binding and cross-linking assay on Mv1Lu cells; set-up: species or system mink; conditions: [125I]TGF-β1 200 pM, recombinant protein 0-10 μg/ml, 3 hr at 4° C.
Experimental: Mink lung Mv1Lu epithelial cells were plated onto 6-well plates and grown until 90% confluency. The radioligand binding and cross-linking of iodinated TGF-β1 (200 pM) to Mv1Lu cells in the absence or presence of increasing concentration of recombinant GST-Jun(1-79) or -CystC was performed as described previously (44). Afterward, cytokine:receptor complexes contained in detergent-solubilized whole cell extracts were isolated by immunoprecipitation with anti-TβR-II antibodies as described previously (44). TGF-β1 bound to cell surface TβR-I, TβR-II, and TβR-III was visualized by exposure of the dried gels to a phosphor screen, which were developed 1-3 d later on a Molecular Dynamic Typhoon Scanner. Total bound TGF-β1 was defined as the sum of signal intensities for TGF-β1 cross-linked to TβR-I, TβR-II, and TβR-III in each condition.
Mink lung Mv1Lu epithelial cells were incubated for 3 hr at 4° C. with [125I]TGF-β1 (200 pM) in the absence or presence of increasing concentrations (0-10 μg/ml; 0, 0.5, 1, 5, 10) of recombinant Jun(1-79) or CystC. Cytokine:receptor complexes were cross-linked by addition of disuccinimidyl suberate, and subsequently isolated from detergent-solubilized whole cell extracts by immunoprecipitation with anti-TβR-II antibodies. […]

[3] = tested on: TGF-β signaling; assay: p3TP-luciferase reporter gene assay in 3T3-L1 cells; format: cell-based, murine; conditions: recombinant protein 10 mg/ml; TGF-β1 5 ng/ml; 3T3-L1 cells; p<0.05
Experimental: Analysis of luciferase activity driven by the synthetic p3TP reporter ((26); generously provided by Dr. Joan Massague, Sloan Kettering) was performed as described previously (42). Briefly, control, CystC-, or Δ14CystC-expressing 3T3-L1 or HT1080 cells were cultured onto 24-well plates at a density of 45,000 cells/well and allowed to adhere overnight. The cells were transiently transfected the following morning by overnight exposure to LT1 liposomes (Mirus) containing 300 ng/well p3TP-luciferase and 100 ng/well of pCMV-β-gal. Afterward, the cells were washed twice with PBS and stimulated overnight in serum-free media with increasing concentrations of TGF-β1 as indicated. The following morning, luciferase and β-gal activities contained in detergent-solubilized cell extracts were determined.
In some experiments, the effects of recombinant CystC and D14CystC on p3TP-luciferase activity 3T3-L1 cells was determined. […] All subsequent procedures were performed as described above.
The present inventor's findings that TGF-β signaling was inhibited by CystC (FIGS. 1 and 2) independent of its actions on cathepsin B lead them to hypothesize CystC as a general antagonist of TGF-β signaling. To test this hypothesis, changes in p3TP-driven luciferase activity were monitored in control, CystC-, Δ14CystC-expressing cells before and after their stimulation with TGF-β. Briefly, GFP-, CystC-, or Δ14CystC-expressing 3T3-L1 cells were transiently transfected with p3TP-luciferase and pCMV-β-gal, and subsequently stimulated with increasing concentrations of TGF-β1 (0-5 ng/ml) as indicated in FIG. 3A. Afterward, luciferase and β-gal activities contained in detergent-solubilized cell extracts were measured. […] Data are the mean (±SE) luciferase activities of four independent experiments normalized to untreated GFP-expressing cells.
The transfectants were then stimulated with TGF-β1 (5 ng/ml) in the absence or presence of recombinant (10 mg/ml) GST, GST-CystC, or GST-D14CystC as indicated in FIG. 3B. […]

[4] = tested on: 3T3-L1 fibroblasts; assay: 3T3-L1 cell invasion through Matrigel matrices; format: cell-based, murine; conditions: recombinant protein 10 mg/ml; TGF-β1 5 ng/ml; 48 hr
Experimental: as §1
In some experiments, the effects of recombinant CystC and D14CystC on 3T3-L1 cell invasion was examined. To do so, 3T3-L1 cells (100,000 cells/chamber) were allowed to invade through Matrigel […], together with or without 5 ng/ml of TGF-β1. All subsequent procedures were performed as described above.
GFP-, CystC-, or Δ14CystC-expressing 3T3-L1 cells were allowed to invade through Matrigel-coated filters in the absence or presence of TGF-β1 (5 ng/ml) for 48 hr, and the results are shown in FIG. 2A. […] Data are the mean (±SE) of four independent experiments presented as the percent invasion relative to GFP-expressing 3T3-L1 cells.
Moreover, the inhibitory effects of CystC on 3T3-L1 cell invasion could be recapitulated by addition of recombinant CystC fusion proteins. Control or TGF-β1-stimulated (5 ng/ml) 3T3-L1 cells were allowed to invade through Matrigel-coated filters for 48 hr in the absence or presence of recombinant (10 mg/ml) GST, GST-CystC, or GST-D14CystC as indicated in FIG. 2B. […] Data are the mean (±SE) of three independent experiments presented as the percent invasion relative to untreated 3T3-L1 cells. […] Collectively, these findings indicate that 3T3-L1 cell invasion proceeds through cathepsin B-dependent and TGF-β-dependent pathways.

[5] = tested on: NMuMG mammary epithelial cells; assay: TGF-β-stimulated actin cytoskeletal reorganization (EMT) in NMuMG cells, rhodamine-phalloidin immunofluorescence; format: cell-based, murine; conditions: recombinant protein treatment 10 μg/ml; TGF-β1 5 ng/ml; NMuMG cells
Experimental: (§2) The ability of TGF-β to alter actin cytoskeletal architecture and E-cadherin expression was monitored essentially as described (Piek et al., 1999). Briefly, control-, CystC-, or Δ14CystC-expressing NMuMG cells were allowed to adhere overnight to glass coverslips in 24-well plates (50,000 cells/well). The cells were stimulated the following day with TGF-β1 (5 ng/ml) for 0-36 hours at 37° C. In some experiments, control NMuMG cells were stimulated with TGF-β1 in the absence or presence of 10 μg/ml of recombinant GST, GST-CystC, or GST-Δ14CystC. Upon completion of agonist stimulation, the cells were washed in ice-cold PBS and immediately fixed in 3.7% formaldehyde. After extensive washing in PBS, the cells were blocked in PBS supplemented with 1.5% FBS, followed by incubation with rhodamine-phalloidin (0.25 μM). […]
(§3) To test this hypothesis, the inventor first examined whether CystC and a CystC mutant impaired in its ability to inhibit cathepsin protease activity (i.e., Δ14CystC) could antagonize TGF-β stimulation of EMT in MECs. […] TGF-β stimulation of EMT is studied routinely in murine NMuMG MECs, which readily undergo EMT when treated with TGF-β (Piek et al., 1999; Miettinen et al., 1994; Gotzmann et al., 2004). […] E-cadherin expression was monitored by indirect immunofluorescence with anti-E-cadherin antibodies.
In another experiment, NMuMG cells were infected with ecotropic retrovirus encoding either GFP (i.e., control), CystC, or Δ14CystC, and subsequently were isolated by FACS-sorting for GFP expression to yield stable polyclonal populations of control, CystC, and Δ14CystC-expressing cells. The expression and secretion of recombinant CystC proteins by infected NMuMG and NRK cells was monitored by immunoblotting conditioned-media with anti-CystC antibodies. […] Next, the control, CystC-, and Δ14CystC-expressing NMuMG cells were incubated in the absence or presence of TGF-β1 (5 ng/ml) for 36 hours, whereupon E-cadherin expression was monitored by immunoblotting with anti-E-Cadherin antibodies. […]

[6] = tested on: NMuMG mammary epithelial cells; assay: TGF-β-mediated downregulation of E-cadherin in NMuMG cells; format: cell-based, murine; conditions: recombinant protein treatment 10 μg/ml; TGF-β1 5 ng/ml, 36 hours; NMuMG cells
Experimental: as §2
The ability of TGF-β to alter E-cadherin expression also was monitored by immunoprecipitating E-cadherin from Buffer H/1% Triton X-100-solubilized (Schiemann et al., 2003) NMuMG whole cell extracts, followed by immunoblotting with anti-E-cadherin antibodies (1:1000 dilution).
as §3
In another experiment, NMuMG cells were infected with ecotropic retrovirus encoding either GFP (i.e., control), CystC, or Δ14CystC, and subsequently were isolated by FACS-sorting for GFP expression to yield stable polyclonal populations of control, CystC, and Δ14CystC-expressing cells. The expression and secretion of recombinant CystC proteins by infected NMuMG and NRK cells was monitored by immunoblotting conditioned-media with anti-CystC antibodies. […]

Molecule: CCCNC(=O)[C@H]1O[C@@H]1C(=O)N[C@H](C(=O)N1CCC[C@H]1C(=O)OC)[C@@H](C)CC [CA-074ME, reference compound]
- HT1080 cell invasiveness ([1]; n=3): 101.0±5.6 % of control

Molecule: CC(=O)N[C@@H](CC(C)C)C(=O)N[C@H](C(=O)N[C@H](C=O)CCCCN)C(C)C [cathepsin B inhibitor II, reference compound] (Ac-Leu-Val-Lys-aldehyde)
- reduction of HT1080 cell invasion through Matrigel matrices ([1]; n=3, p<0.05): 47.1±8.5%

B1: recombinant Jun(1-79): recombinant GST-Jun(1-79) fusion protein, control in the TGF-β1 binding assay (protein)
chain: MTAKMETTFYDDALNASFLPSESGPYGYSNPKILKQSMTLNLADPVGSLKPHLRAKNSDLLTSPDVGLLKLASPELERL
modifications: left off: a dimerising Fc or GST
- binding of iodinated TGF-β1 to its cell surface receptors [2]: no effect

B2: recombinant Δ14CystC: GST-CystC fusion protein with residues 80-93 deleted by site-directed mutagenesis, purified from E. coli (protein)
chain: MAGPLRAPLLLLAILAVALAVSPAAGSSPGKPPRLVGGPMDASVEEEGVRRALDFAVGEYNKASNDMYHSRALQVVRARLGRTTCTKTQPNLDNCPFHDQPHLKRKAFCSFQIYAVPWQGTMTLSKSTCQDA
modifications: left off: small tags and cut ends
notes: GST-CystC fusion protein with residues 80-93 deleted by site-directed mutagenesis, purified from E. coli
- luciferase activity stimulated by TGF-β (p3TP) [3]: significantly inhibited
- 3T3-L1 cell invasion stimulated by serum:TGF-β [4]: selectively blocked
- actin cytoskeletal reorganization stimulated by TGF-β [5]: prevented
- TGF-β-mediated downregulation of E-cadherin [6]: antagonized
